Results reported in article PMC8285493 (Nature Communications, 2021).
Where two headings read alike, the source gives them in different places.

B1: full-length SLFN12 (natural protein, human, UniProt Q8IYM2 1-578, looked up)
chain: MNISVDLETNYAELVLDVGRVTLGENSRKKMKDCKLRKKQNESVSRAMCALLNSGGGVIKAEIENEDYSYTKDGIGLDLENSFSNILLFVPEYLDFMQNGNYFLIFVKSWSLNTSGLRITTLSSNLYKRDITSAKVMNATAALEFLKDMKKTRGRLYLRPELLAKRPCVDIQEENNMKALAGVFFDRTELDRKEKLTFTESTHVEIKNFSTEKLLQRIKEILPQYVSAFANTDGGYLFIGLNEDKEIIGFKAEMSDLDDLEREIEKSIRKMPVHHFCMEKKKINYSCKFLGVYDKGSLCGYVCALRVERFCCAVFAKEPDSWHVKDNRVMQLTRKEWIQFMVEAEPKFSSSYEEVISQINTSLPAPHSWPLLEWQRQRHHCPGLSGRITYTPENLCRKLFLQHEGLKQLICEEMDSVRKGSLIFSRSWSVDLGLQENHKVLCDALLISQDSPPVLYTFHMVQDEEFKGYSTQTALTLKQKLAKIGGYTKKVCVMTKIFYLSPEGMTSCQYDLRSQVIYPESYYFTRRKYLLKALFKALKRLKSLRDQFSFAENLYQIIGIDCFQKNDKKMFKSCRRLT
B2: catalytic domain of PDE3A (PDE3A^CAT), residues 640-1141 (domain or fragment, human, UniProt Q14432 640-1141, looked up)
chain: EDETECLREPLRKASACSTYAPETMMFLDKPILAPEPLVMDNLDSIMEQLNTWNFPIFDLVENIGRKCGRILSQVSYRLFEDMGLFEAFKIPIREFMNYFHALEIGYRDIPYHNRIHATDVLHAVWYLTTQPIPGLSTVINDHGSTSDSDSDSGFTHGHMGYVFSKTYNVTDDKYGCLSGNIPALELMALYVAAAMHDYDHPGRTNAFLVATSAPQAVLYNDRSVLENHHAAAAWNLFMSRPEYNFLINLDHVEFKHFRFLVIEAILATDLKKHFDFVAKFNGKVNDDVGIDWTNENDRLLVCQMCIKLADINGPAKCKELHLQWTDGIVNEFYEQGDEEASLGLPISPFMDRSAPQLANLQESFISHIVGPLCNSYDSAGLMPGKWVEDSDESGDTDDPEEEEEEAPAPNEEETCENNESPKKKTFKRRKIYCQITQHLLQNHKMWKKVIEEEQRLAGIENQSLDQTPQSHSSEQIQAIKEEEEEKGKPRGEEIPTQKPDQ
B3: biotinylated Avi-tagged PDE3A^CAT (domain or fragment, human, UniProt Q14432 640-1141, looked up)
chain: EDETECLREPLRKASACSTYAPETMMFLDKPILAPEPLVMDNLDSIMEQLNTWNFPIFDLVENIGRKCGRILSQVSYRLFEDMGLFEAFKIPIREFMNYFHALEIGYRDIPYHNRIHATDVLHAVWYLTTQPIPGLSTVINDHGSTSDSDSDSGFTHGHMGYVFSKTYNVTDDKYGCLSGNIPALELMALYVAAAMHDYDHPGRTNAFLVATSAPQAVLYNDRSVLENHHAAAAWNLFMSRPEYNFLINLDHVEFKHFRFLVIEAILATDLKKHFDFVAKFNGKVNDDVGIDWTNENDRLLVCQMCIKLADINGPAKCKELHLQWTDGIVNEFYEQGDEEASLGLPISPFMDRSAPQLANLQESFISHIVGPLCNSYDSAGLMPGKWVEDSDESGDTDDPEEEEEEAPAPNEEETCENNESPKKKTFKRRKIYCQITQHLLQNHKMWKKVIEEEQRLAGIENQSLDQTPQSHSSEQIQAIKEEEEEKGKPRGEEIPTQKPDQ
modifications: biotin on the Avi-tag (BirA ligase)

Assays:
[1] = biological target: the molecule itself; experiment: SEC-MALS
[2] = biological target: B2; experiment: SEC-MALS
[3] = biological target: B3; experiment: BLI
[4] = biological target: the molecule itself; experiment: AUC
[5] = biological target: the molecule itself; experiment: SEC-MALS; remark: listed apart in the source
[6] = biological target: His6-MBP-SLFN12 (human, UniProt Q8IYM2 1-578); experiment: pull-down
[7] = biological target: B1; experiment: BLI

stoichiometry N [2] | KD with DNMDP [3] [nM] | binding result [6] | Kd [7] [nM] | Binder | stoichiometry N [1] | Kd [4] [nM] | stoichiometry N [5]
1 SLFN12 per PDE3A^CAT (2:2) | 65 |  |  | B1 | 2 | 870 | 
 |  | binds |  | B2 |  | 40 | 2
 |  |  | 320 | B3 |  |  | 
